Assay results taken from publication PMC7613929 (Nature microbiology, 2022).

B1: E. coli FtsN cytoplasmic tail peptide, residues 1-32 (EcFtsN^1-32) [E. coli] / E. coli FtsA (EcFtsA), full length [E. coli] (parent complex)
chain 1: MAQRDYVRRSQPAPSRRKKSTSRKKQRNLPAV
chain 2: MIKATDRKLVVGLEIGTAKVAALVGEVLPDGMVNIIGVGSCPSRGMDKGGVNDLESVVKCVQRAIDQAELMADCQISSVYLALSGKHISCQNEIGMVPISEEEVTQEDVENVVHTAKSVRVRDEHRVLHVIPQEYAIDYQEGIKNPVGLSGVRMQAKVHLITCHNDMAKNIVKAVERCGLKVDQLIFAGLASSYSVLTEDERELGVCVVDIGGGTMDIAVYTGGALRHTKVIPYAGNVVTSDIAYAFGTPPSDAEAIKVRHGCALGSIVGKDESVEVPSVGGRPPRSLQRQTLAEVIEPRYTELLNLVNEEILQLQEKLRQQGVKHHLAAGIVLTGGAAQIEGLAACAQRVFHTQVRIGAPLNITGLTDYAQEPYYSTAVGLLHYGKESHLNGEAEVEKRVTASVGSWIKRLNSWLRKEF

Variants of: B1
Assay: SPR; FtsA immobilised on CM5 chip via amide coupling; peptide 1:2 dilution series from 20 μM; maximum response fixed during fitting (asterisk)
In the case of chain 1 MAQRDYVRRSQPAPSAASASTSRKKQRNLPAV [chain 1 R16A, chain 1 R17A, chain 1 K18S, chain 1 K19A], the Kd is reported as ~166 µM.
chain 1 MAQRDYVRRSQPAPSRRKKSTSASAQRNLPAV [chain 1 R23A, chain 1 K24S, chain 1 K25A] gave a Kd of ~80.6 µM.
